For one substance, IC50 of cell viability (CellTiter-Glo, 72 h), PED17 cells (DMG, IL-13Rα2-high) results are on record in publication PMC9143740.

The target of this assay is Interleukin 13 receptor subunit alpha 2 (IL-13Rα2) (human (endogenous in patient-derived HGG cell lines)) (UniProt Q14627).
Sequence of UniProt Q14627 (Q14627 27-380): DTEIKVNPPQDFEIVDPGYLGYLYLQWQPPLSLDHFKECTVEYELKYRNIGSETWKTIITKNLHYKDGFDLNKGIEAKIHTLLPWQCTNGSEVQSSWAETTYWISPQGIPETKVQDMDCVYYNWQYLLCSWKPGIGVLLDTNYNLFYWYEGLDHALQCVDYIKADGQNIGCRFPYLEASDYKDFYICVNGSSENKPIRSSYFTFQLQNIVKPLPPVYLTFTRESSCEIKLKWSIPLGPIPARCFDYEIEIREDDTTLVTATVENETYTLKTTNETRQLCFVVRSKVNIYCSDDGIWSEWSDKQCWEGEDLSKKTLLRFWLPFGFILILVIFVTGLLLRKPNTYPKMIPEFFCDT

For GB-13 (IL13.E13K-PE4E), the IC50 of cell viability (CellTiter-Glo, 72 h), PED17 cells (DMG, IL-13Rα2-high) amounted to 0.02 ng/mL.
